This is an account of results in patent EP4624493A1 (Jiangsu Hengrui Pharmaceuticals Co., Ltd., dated 2025).

This test addresses T1, human HGFR protein extracellular domain with the His tag (human, UniProt P08581 25-932).
T1 construct: also called HGFR-His
Briefly: SPR Biacore T200, comparison of KD values. A general note: Surface plasmon resonance follows binding to a sensor surface in real time, without labels.

T1 sequence (P08581 other isoform, or with tags, fused parts or gaps): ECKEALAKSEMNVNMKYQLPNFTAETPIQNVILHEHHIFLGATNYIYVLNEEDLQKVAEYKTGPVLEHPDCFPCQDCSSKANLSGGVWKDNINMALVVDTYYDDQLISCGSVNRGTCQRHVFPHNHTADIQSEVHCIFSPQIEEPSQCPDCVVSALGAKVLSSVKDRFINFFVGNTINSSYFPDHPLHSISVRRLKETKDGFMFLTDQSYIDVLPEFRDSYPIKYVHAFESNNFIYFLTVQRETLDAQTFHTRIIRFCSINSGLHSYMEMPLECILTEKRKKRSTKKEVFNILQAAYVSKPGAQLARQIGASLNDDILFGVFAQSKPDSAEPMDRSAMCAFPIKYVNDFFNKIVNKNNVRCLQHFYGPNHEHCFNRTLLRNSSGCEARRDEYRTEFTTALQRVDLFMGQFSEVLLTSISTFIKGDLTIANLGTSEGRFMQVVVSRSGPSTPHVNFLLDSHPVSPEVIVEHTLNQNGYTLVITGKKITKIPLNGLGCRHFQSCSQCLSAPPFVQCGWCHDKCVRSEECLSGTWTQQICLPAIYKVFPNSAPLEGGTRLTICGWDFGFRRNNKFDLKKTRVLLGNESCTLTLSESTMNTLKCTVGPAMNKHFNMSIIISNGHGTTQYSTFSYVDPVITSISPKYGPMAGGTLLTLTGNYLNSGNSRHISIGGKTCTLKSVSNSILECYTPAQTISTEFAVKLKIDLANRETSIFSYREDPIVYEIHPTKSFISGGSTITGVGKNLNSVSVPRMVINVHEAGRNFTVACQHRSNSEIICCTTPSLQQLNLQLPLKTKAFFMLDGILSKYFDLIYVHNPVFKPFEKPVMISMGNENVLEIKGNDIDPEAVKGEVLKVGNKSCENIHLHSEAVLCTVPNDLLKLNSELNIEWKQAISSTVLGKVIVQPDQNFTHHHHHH

B1: Ab10.1, mutant antibody of Ab10 (anti-HGFR) (antibody, V domains shown)
VH: QVQLVESGGGVVQPGRSLRLSCAASGFSLSDYGVHWVRQAPGKGLEWLAVIWSGGSTNYADAFVSRLTISKDNSKNTVYLQMNSLRAEDTAVYYCARNHDNPYIYAMDYWGQGTTVTVSS
VL: DIVLTQSPDSLAVSLGERATINCRADKSVSTSTYNYLHWYQQKPGQPPKLLIYRGSFLATGVPDRFSGSGSGTDFTLTISSLQAEDVAVYYCQHSRDLPPTFGQGTKLEIK
Turning to B1, the “fold affinity against the parent antibody Ab10” value was not below 4 fold.
